According to publication PMC5217673, “The Shigella Virulence Factor IcsA Relieves N-WASP Autoinhibition by Displacing the Verprolin Homology/Cofilin/Acidic (VCA) Domain*” (The Journal of Biological Chemistry, 2016):
No end group written: not given here.

B1: GST-N-WASP extended GBD (residues 156–274) (domain or fragment)
chain: NLPMATVDIKNPEITTNRFYGPQVNNISHTKEKKKGKAKKKRLTKADIGTPSNFQHIGHVGWDPNTGFDLNNLDPELKNLFDMCGISEAQLKDRETSKVIYDFIEKTGGVEAVKNELRR
notes: Cloned in pGEX-6P-1 or pGEX-4T-2; also called GST-GBD; GBD alone; source: E. coli Rosetta(DE3), purified (glutathione-Sepharose, SEC)
B2: GST-N-WASP WH1 + GBD (residues 30–274) (domain or fragment)
chain: LFTFLGKKCVTMSSAVVQLYAADRNCMWSKKCSGVACLVKDNPQRSYFLRIFDIKDGKLLWEQELYNNFVYNSPRGYFHTFAGDTCQVALNFANEEEAKKFRKAVTDLLGRRQRKSEKRRDPPNGPNLPMATVDIKNPEITTNRFYGPQVNNISHTKEKKKGKAKKKRLTKADIGTPSNFQHIGHVGWDPNTGFDLNNLDPELKNLFDMCGISEAQLKDRETSKVIYDFIEKTGGVEAVKNELRR
notes: N-WASP from the WH1 domain to the end of the GBD, residues 30-274; also called GST-WH1 + GBD; extended N-WASP construct; source: E. coli Rosetta(DE3), purified (glutathione-Sepharose, SEC)

How the values were obtained:
Details in all cases: both partners purified
[1] = target: B1; assay: fluorescence polarisation; direct binding: fluorescein-VCA peptide 2 nM, GST-GBD or GST-WH1 + GBD 0.1–200 μM, 25 °C, TBS, 1 mM DTT; one-site equilibrium model
[2] = target: B2; assay: as above
[3] = target: T1, IcsA passenger domain, IcsA(53–758), FLAG-tagged (Shigella flexneri, UniProt Q7BCK4 53-758); assay: fluorescence polarisation; competition: preformed complex of GST-GBD or GST-WH1 + GBD (5 μM) and fluorescein-VCA peptide (0.1 nM), IcsA added at 0.01–16 μM, 25 °C; one-site equilibrium model
T1 construct: IcsA (VirG) of Shigella flexneri, gene amplified from the virulence plasmid pWR100; Expressed as full-length IcsA from pETDuet-2 with IcsP; monomer by SEC-MALS; also called FLAG-IcsA; VirG; source: E. coli C43 (DE3), full-length IcsA co-expressed with IcsP; secreted passenger domain purified from medium (anti-FLAG M2 beads, SEC); not shown: FLAG, N-terminal, kept
T1 sequence: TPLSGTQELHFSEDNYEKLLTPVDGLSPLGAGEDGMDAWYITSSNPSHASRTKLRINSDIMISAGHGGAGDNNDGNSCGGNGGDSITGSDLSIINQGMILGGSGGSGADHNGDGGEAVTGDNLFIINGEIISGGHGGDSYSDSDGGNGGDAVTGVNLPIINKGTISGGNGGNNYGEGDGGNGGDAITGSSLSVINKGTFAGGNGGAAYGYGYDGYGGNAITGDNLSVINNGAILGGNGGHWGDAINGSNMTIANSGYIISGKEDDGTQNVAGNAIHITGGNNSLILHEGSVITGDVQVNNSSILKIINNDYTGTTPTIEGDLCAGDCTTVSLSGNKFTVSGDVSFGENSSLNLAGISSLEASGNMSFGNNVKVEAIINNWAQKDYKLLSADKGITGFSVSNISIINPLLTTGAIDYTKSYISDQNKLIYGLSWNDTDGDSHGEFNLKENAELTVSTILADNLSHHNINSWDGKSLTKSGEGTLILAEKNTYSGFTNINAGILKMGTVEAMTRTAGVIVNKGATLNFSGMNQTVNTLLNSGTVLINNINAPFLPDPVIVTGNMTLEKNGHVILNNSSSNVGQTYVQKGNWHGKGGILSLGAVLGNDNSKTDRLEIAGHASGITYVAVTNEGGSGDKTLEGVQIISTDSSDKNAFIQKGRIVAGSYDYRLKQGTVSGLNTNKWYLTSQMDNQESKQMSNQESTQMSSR

Binder | Kd [1] [µM] | Kd [2] [µM] | Kd [3] [µM]
fluorescein-APTSGIVGALMEVMQKRSKA (also called labeled peptide; source: synthetic peptide (Genscript)) [Fluorescein-labelled N-WASP VCA peptide (residues 462–481)] | 28.8 | 52.4 | 
B1 |  |  | 0.32
B2 |  |  | 0.05
